In IntAct's records for PubMed 9341158:

B1: AP-2 complex subunit mu (Rattus norvegicus (Rat)), P84092 (parent)
chain: MIGGLFIYNHKGEVLISRVYRDDIGRNAVDAFRVNVIHARQQVRSPVTNIARTSFFHVKRSNIWLAAVTKQNVNAAMVFEFLYKMCDVMAAYFGKISEENIKNNFVLIYELLDEILDFGYPQNSETGALKTFITQQGIKSQHQTKEEQSQITSQVTGQIGWRREGIKYRRNELFLDVLESVNLLMSPQGQVLSAHVSGRVVMKSYLSGMPECKFGMNDKIVIEKQGKGTADETSKSGKQSIAIDDCTFHQCVRLSKFDSERSISFIPPDGEFELMRYRTTKDIILPFRVIPLVREVGRTKLEVKVVIKSNFKPSLLAQKIEVRIPTPLNTSGVQVICMKGKAKYKASENAIVWKIKRMAGMKESQISAEIELLPTNDKKKWARPPISMNFEVPFAPSGLKVRYLKVFEPKLNYSDHDVIKWVRYIGRSGIYETRC

Variants of: B1
Conditions: with tgon3_rat Ttgn1, P19814
Sequence of tgon3_rat Ttgn1, P19814 (P19814 whole entry): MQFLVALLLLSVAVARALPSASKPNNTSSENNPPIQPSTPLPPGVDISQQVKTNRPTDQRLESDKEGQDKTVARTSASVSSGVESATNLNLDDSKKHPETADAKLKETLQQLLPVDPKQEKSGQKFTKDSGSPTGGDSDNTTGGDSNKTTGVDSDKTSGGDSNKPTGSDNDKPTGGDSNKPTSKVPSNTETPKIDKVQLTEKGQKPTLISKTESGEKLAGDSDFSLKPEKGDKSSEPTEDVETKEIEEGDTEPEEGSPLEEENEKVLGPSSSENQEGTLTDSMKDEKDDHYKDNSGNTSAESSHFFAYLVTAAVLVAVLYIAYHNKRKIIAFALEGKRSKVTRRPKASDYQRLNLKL

Effect of a mutation on the interaction, decreasing interaction:
G270A
M209A
D269A
F265A

Variants of: B1
Conditions: with ap2b1_human AP2B1, P63010
Sequence of ap2b1_human AP2B1, P63010 (P63010 whole entry): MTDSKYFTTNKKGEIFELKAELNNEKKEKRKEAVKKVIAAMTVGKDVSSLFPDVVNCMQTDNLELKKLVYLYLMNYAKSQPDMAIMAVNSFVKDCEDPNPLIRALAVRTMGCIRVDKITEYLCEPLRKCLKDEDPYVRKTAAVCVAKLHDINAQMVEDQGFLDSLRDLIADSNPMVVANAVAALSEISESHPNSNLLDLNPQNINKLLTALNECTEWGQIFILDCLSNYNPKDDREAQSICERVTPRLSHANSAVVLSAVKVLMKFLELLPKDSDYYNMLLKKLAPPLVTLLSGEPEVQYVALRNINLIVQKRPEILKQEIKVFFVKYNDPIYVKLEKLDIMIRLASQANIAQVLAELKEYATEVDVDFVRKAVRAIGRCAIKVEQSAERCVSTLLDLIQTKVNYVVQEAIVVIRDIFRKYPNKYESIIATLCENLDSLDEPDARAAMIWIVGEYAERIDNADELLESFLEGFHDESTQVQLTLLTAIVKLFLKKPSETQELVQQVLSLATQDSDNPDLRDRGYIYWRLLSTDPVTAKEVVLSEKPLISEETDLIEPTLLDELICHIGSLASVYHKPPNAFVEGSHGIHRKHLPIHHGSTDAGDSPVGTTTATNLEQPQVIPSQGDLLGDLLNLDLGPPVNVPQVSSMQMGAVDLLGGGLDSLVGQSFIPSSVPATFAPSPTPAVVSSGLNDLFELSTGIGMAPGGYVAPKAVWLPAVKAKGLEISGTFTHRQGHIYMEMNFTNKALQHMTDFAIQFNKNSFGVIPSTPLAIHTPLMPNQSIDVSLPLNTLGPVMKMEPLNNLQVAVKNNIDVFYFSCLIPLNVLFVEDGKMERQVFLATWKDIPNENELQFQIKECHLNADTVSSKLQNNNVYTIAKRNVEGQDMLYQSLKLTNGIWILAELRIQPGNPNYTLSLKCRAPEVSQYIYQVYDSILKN

Effect of a mutation on the interaction, decreasing interaction:
I96A
L82A
Y83A
